Data published in the Human Domainome abundance scans (Beltran et al. 2025).
± gives the uncertainty stated by the source.

B1: Dynamin-binding protein, residues 242 to 304; numbered along this chain, Q6XZF7 (parent)
chain: EEPGTYGVALYRFQALEPNELDFEVGDKIRILATLEDGWLEGSLKGRTGIFPYRFVKLCPDTR

Variants of: B1
Assay: abundance fitness (aPCA) (normalised: wild type 0, dead -1); higher = more abundant; growth selection in yeast, the domain comes from the species named
Conditions: Homo sapiens

Going from T34V to T48S, the abundance fitness falls from -0.192 ± 0.048 to -0.351 ± 0.058.

Going from T48F to T48I, the abundance fitness rises from -0.49 ± 0.067 to -0.214 ± 0.058.

Going from T48N to T48K, the abundance fitness rises from -0.453 ± 0.076 to 0.112 ± 0.091.

Compared with T48L, T48Q is higher in abundance fitness: -0.436 ± 0.063 for the first, -0.203 ± 0.12 for the second.

A15S and A15T are within error of each other in abundance fitness: 0.131 ± 0.048 for the first, 0.06 ± 0.072 for the second.

First: A15F
Second: A15G
The abundance fitness of the first is lower: -0.982 ± 0.15 for the first, 0.019 ± 0.055 for the second.

Compared with L10G, L10K is higher in abundance fitness: -0.743 ± 0.098 for the first, -0.384 ± 0.21 for the second.

L10W and L10H are within error of each other in abundance fitness: -0.397 ± 0.15 for the first, -0.566 ± 0.12 for the second.

Compared with L10I, L10S is lower in abundance fitness: 0.028 ± 0.059 for the first, -0.457 ± 0.065 for the second.

D22C and D22F are within error of each other in abundance fitness: -0.125 ± 0.052 for the first, -0.016 ± 0.059 for the second.

Going from D22G to D22W, the abundance fitness falls from -0.02 ± 0.051 to -0.624 ± 0.18.

First: A9N
Second: A9G
The abundance fitness of the first is lower: -0.812 ± 0.14 for the first, -0.443 ± 0.072 for the second.

A9P and A9C are within error of each other in abundance fitness: -0.752 ± 0.17 for the first, -0.771 ± 0.096 for the second.

A9H and A9Q are within error of each other in abundance fitness: -0.967 ± 0.16 for the first, -0.821 ± 0.44 for the second.

First: A9S
Second: A9R
The abundance fitness of the first is higher: -0.566 ± 0.067 for the first, -0.816 ± 0.11 for the second.

A9V and A9D are within error of each other in abundance fitness: -0.853 ± 0.1 for the first, -1.01 ± 0.16 for the second.

A9Y and I50F are within error of each other in abundance fitness: -0.578 ± 0.078 for the first, -0.598 ± 0.077 for the second.

First: I50Q
Second: I50D
The abundance fitness of the first is higher: -0.093 ± 0.12 for the first, -0.91 ± 0.14 for the second.

First: I50W
Second: I50R
The abundance fitness of the first is lower: -0.693 ± 0.19 for the first, 0.138 ± 0.058 for the second.

Going from I50A to R12N, the abundance fitness rises from -0.379 ± 0.08 to 0.009 ± 0.062.

Going from R12I to R12V, the abundance fitness rises from -0.737 ± 0.1 to -0.508 ± 0.075.

Compared with Y6R, Y6T is higher in abundance fitness: -0.712 ± 0.1 for the first, -0.45 ± 0.094 for the second.

Y6M and Y6H are within error of each other in abundance fitness: -0.394 ± 0.16 for the first, -0.498 ± 0.1 for the second.

Y6C and L58Y are within error of each other in abundance fitness: -0.502 ± 0.083 for the first, -0.473 ± 0.06 for the second.

Going from L58S to L58N, the abundance fitness falls from -0.64 ± 0.06 to -0.914 ± 0.12.

Compared with L58V, L58D is lower in abundance fitness: -0.064 ± 0.044 for the first, -0.366 ± 0.069 for the second.

Compared with Q14Y, Q14G is lower in abundance fitness: -0.172 ± 0.066 for the first, -0.696 ± 0.077 for the second.

First: Q14W
Second: Q14V
The abundance fitness of the first is lower: -0.572 ± 0.18 for the first, -0.115 ± 0.054 for the second.

Going from Q14S to Q14E, the abundance fitness rises from -0.321 ± 0.056 to -0.131 ± 0.13.

Q14K and Q14T are within error of each other in abundance fitness: -0.205 ± 0.13 for the first, -0.109 ± 0.063 for the second.

G49M and G49I are within error of each other in abundance fitness: -0.711 ± 0.4 for the first, -0.59 ± 0.12 for the second.

Going from G49F to G49C, the abundance fitness rises from -0.735 ± 0.1 to -0.422 ± 0.071.

G49Y and D37R are within error of each other in abundance fitness: -0.805 ± 0.13 for the first, -0.59 ± 0.092 for the second.

First: D37F
Second: D37I
The abundance fitness of the first is higher: -0.56 ± 0.086 for the first, -0.89 ± 0.2 for the second.

First: D37L
Second: D37G
The abundance fitness of the first is lower: -0.663 ± 0.12 for the first, -0.073 ± 0.054 for the second.

D37K and D37S are within error of each other in abundance fitness: -0.287 ± 0.25 for the first, -0.257 ± 0.057 for the second.

First: Y11P
Second: Y11E
The abundance fitness of the first is lower: -0.784 ± 0.16 for the first, -0.02 ± 0.1 for the second.

Y11V and Y11I are within error of each other in abundance fitness: -0.086 ± 0.049 for the first, -0.14 ± 0.055 for the second.

Going from Y11N to K45L, the abundance fitness falls from -0.137 ± 0.057 to -0.502 ± 0.081.

K45Q and K45N are within error of each other in abundance fitness: -0.157 ± 0.15 for the first, 0.037 ± 0.061 for the second.

First: K45E
Second: K45T
The abundance fitness of the first is higher: 0.013 ± 0.14 for the first, -0.791 ± 0.13 for the second.

K45A and K45R are within error of each other in abundance fitness: -0.115 ± 0.077 for the first, -0.168 ± 0.071 for the second.
